In paper PMC10192352 (2023):

Tests used:
[1] = target: T1, NPNA8 peptide, biotinylated (Plasmodium falciparum, biotin (position not given)); test: BLI; 2:1 binding model
T1 chain: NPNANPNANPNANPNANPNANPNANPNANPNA

[2] = target: T1, NPNA8 peptide, biotinylated; test: BLI; 2:1 binding model

B1: L9 Fab (Fab, V domains shown)
VH: QVKLVESGGGVVQPGRSLRLSCEASGFIFSTYGMHWVRQAPGKGLEWVAVIWFDGSNIYYADSVKGRFTISRDNSKNTVFMQMDSLRAEDTAVYYCHRNFYDGSGPFDYWGQGTLVTVSS
VL: DIQMTQSPSTLSASVGDRVTITCRASQFISRWLAWYQQKPGKAPKLLIYKASSLESGVPSRFSGSGSETHFTLTISSLQPDDVATYYCQEYTSYGRTFGQGTKVEIK
Work on B1 yielded a Kd [1] of 6.26 µM and a koff [2] of 0.024 s⁻¹.
